# Molecular target: FIV Pr50^Gag-His6-tagged protein (feline immunodeficiency virus Gag precursor polyprotein) (feline immunodeficiency virus (Petaluma strain 34TF10))
# Test: dynamic light scattering; purified Pr50^Gag in solution, HEPES-KOH buffer (pH 8); hydrodynamic radius from volume and number distribution
substance,measurement,value
FIV Pr50^Gag-His6-tagged protein (feline immunodeficiency virus Gag precursor polyprotein) (natural protein),stoichiometry N,2

# From article PMC10726167
